Assay results published in paper PMC9289625.

System: His:paALKBH5-like (Gypsy_Pa_2799 ORF2) (Phalaenopsis aphrodite)
Experiment: EMSA
Settings: EMSA: 10 mM Tris-HCl pH 8.0, 100 mM NaCl, 50% glycerol, 1 U RiboLock, 30 min at 4 C; Northwestern: 10 mM Tris-HCl pH 7.5, 1 mM EDTA, 0.1 M NaCl, 0.05% Triton …

AMV RNA 3 5'UTR transcript
Kd: 210 nM
